Assay results from paper PMC4987296 (The Journal of Cell Biology, 2016).

Key:
[1] = molecular target: GFP-VPS26A (p.K297X) (human, UniProt O75436 1-296); test: affinity purification with mass spectrometry
[2] = molecular target: SNX27 PDZ domain in the presence of VPS26A (p.M112V) (rat | human, UniProt Q8K4V4;O75436, p.M112V); test: ITC
[3] = molecular target: SNX27 PDZ domain in the presence of VPS26A (p.K93E) (rat | human, UniProt Q8K4V4;O75436, p.K93E); test: ITC
Chain of SNX27 PDZ domain in the presence of VPS26A (p.K93E) (O75436 whole entry K93E, the tested form may be a part, one chain of several): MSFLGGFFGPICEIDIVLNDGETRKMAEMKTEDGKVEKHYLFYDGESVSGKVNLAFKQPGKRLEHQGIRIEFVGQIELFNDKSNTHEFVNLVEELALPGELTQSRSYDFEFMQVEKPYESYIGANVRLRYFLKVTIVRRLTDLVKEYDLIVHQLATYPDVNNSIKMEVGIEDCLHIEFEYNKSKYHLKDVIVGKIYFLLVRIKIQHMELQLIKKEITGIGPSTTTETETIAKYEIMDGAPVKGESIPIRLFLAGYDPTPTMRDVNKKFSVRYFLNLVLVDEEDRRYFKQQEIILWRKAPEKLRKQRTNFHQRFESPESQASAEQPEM

Chain of GFP-VPS26A (p.K297X) (O75436 1-296): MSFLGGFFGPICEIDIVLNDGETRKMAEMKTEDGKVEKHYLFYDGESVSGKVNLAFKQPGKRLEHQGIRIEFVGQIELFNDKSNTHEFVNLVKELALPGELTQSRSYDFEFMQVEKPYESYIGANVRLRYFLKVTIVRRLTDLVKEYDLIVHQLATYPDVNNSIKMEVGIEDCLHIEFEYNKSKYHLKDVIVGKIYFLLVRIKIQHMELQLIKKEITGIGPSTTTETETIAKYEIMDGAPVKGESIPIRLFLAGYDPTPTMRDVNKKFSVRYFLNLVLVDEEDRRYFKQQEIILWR
Chain of SNX27 PDZ domain in the presence of VPS26A (p.M112V) (O75436 whole entry M112V, the tested form may be a part, one chain of several): as the sequence (O75436 whole entry K93E, the tested form may be a part, one chain of several) above, with E93K, M112V counted along it

B1: PKD2 (natural protein)
chain: MVNSSRVQPQQPGDAKRPPAPRAPDPGRLMAGCAAVGASLAAPGGLCEQRGLEIEMQRIRQAAARDPPAGAAASPSPPLSSCSRQAWSRDNPGFEAEEEEEEVEGEEGGMVVEMDVEWRPGSRRSAASSAVSSVGARSRGLGGYHGAGHPSGRRRRREDQGPPCPSPVGGGDPLHRHLPLEGQPPRVAWAERLVRGLRGLWGTRLMEESSTNREKYLKSVLRELVTYLLFLIVLCILTYGMMSSNVYYYTRMMSQLFLDTPVSKTEKTNFKTLSSMEDFWKFTEGSLLDGLYWKMQPSNQTEADNRSFIFYENLLLGVPRIRQLRVRNGSCSIPQDLRDEIKECYDVYSVSSEDRAPFGPRNGTAWIYTSEKDLNGSSHWGIIATYSGAGYYLDLSRTREETAAQVASLKKNVWLDRGTRATFIDFSVYNANINLFCVVRLLVEFPATGGVIPSWQFQPLKLIRYVTTFDFFLAACEIIFCFFIFYYVVEEILEIRIHKLHYFRSFWNCLDVVIVVLSVVAIGINIYRTSNVEVLLQFLEDQNTFPNFEHLAYWQIQFNNIAAVTVFFVWIKLFKFINFNRTMSQLSTTMSRCAKDLFGFAIMFFIIFLAYAQLAYLVFGTQVDDFSTFQECIFTQFRIILGDINFAEIEEANRVLGPIYFTTFVFFMFFILLNMFLAIINDTYSEVKSDLAQQKAEMELSDLIRKGYHKALVKLKLKKNTVDDISESLRQGGGKLNFDELRQDLKGKGHTDAEIEAIFTKYDQDGDQELTEHEHQQMRDDLEKEREDLDLDHSSLPRPMSSRSFPRSLDDSEEDDDEDSGHSSRRRGSISSGVSYEEFQVLVRRVDRMEHSIGSIVSKIDAVIVKLEIMERAKLKRREVLGRLLDGVAEDERLGRDSEIHREQMERLVREELERWESDDAASQISHGLGTPVGLNGQPRPRSSRPSSSQSTEGMEGAGGNGSSNVHV
[1]
  SILAC enrichment ratio, mutant over wild-type GFP-VPS26A: 17.2

## PPESESKV [Kir3.3 peptide (PPESESKV)]
[2]
  fold enhancement of binding over SNX27 PDZ domain alone: > 10 fold
[3]
  fold enhancement of binding over SNX27 PDZ domain alone: > 10 fold

B2: DENND4C (natural protein)
chain: not shown
[1]
  SILAC enrichment ratio, mutant over wild-type GFP-VPS26A: 6.55
